Experimental data reported in patent US20240003880A1 (published 2024).

B1: antibody 9-15 (antibody, V domains shown)
VH: QVQLVQSGAEVKKPGSSVKVSCKASGGTFSSYAISWVRQAPGQGLEWMGGIIPIFGTANYAQKFQGRVTITAEESTSTAYMELSSLRSEDTAVYYCARDGWAAAGPDTSLLGTFDIWGQGTMVTVSS
VL: QSALTQPPSVSGSPGQSVTISCTGTSSDVGSYNRVSWYQQPPGTAPKLIIYEVSNRPSGVPDRFSGSKSGNTASLTISGLQAEDEADYYCSSYTSSSTYVVFGGGTKLTVL
B2: antibody 9-17 (antibody, V domains shown)
VH: QVQLVQSGAEVKKPGSSVKVSCKASGGTFSNYVISWVRQAPGQGLEWMGGIIPIFGTAKYAQKFQGRVAITADESTSTAYMEVSSLRSEDTAVYYCARAGYCSGGSCRRPSDYYGMDVWGQGTTVTVSS
VL: not shown
B3: antibody 9-24 (antibody, V domains shown)
VH: EVQLVESGGGLVQPGGSLRLSCAASGFTFSDSAVHWVRQASGKGLEWVGRIRNRNNNYATAYAASVKGRFTISRDDSENMAYLQMNGLKTEDTAIYYCTDLLAYWGQGTLLTVSS
VL: SYELTQPPSVSVSPGQTARITCSADALPKQYAYWYQQKAGQAPVLVIYKDNERPSGIPERFSGSSSGTTVTLTISGVQAEDEADYYCQSADSSGGYRVFGGGTKLTVL
B4: antibody 9-11 (antibody, V domains shown)
VH: QVQLVQSGAEVKKPGASVKVSCKASGYTFTSYAISWVRQAPGQGLEWMGWISAYTGNTNYAQKLQGRVTMTTDTSTSTAYMELRSLRSDDTAVYYCARNGWDYDTSGTHDYWGQGTLVTVSS
VL: not shown

Target: SARS-CoV-2 nucleocapsid phosphoprotein (SARS-CoV-2, UniProt P0DTC9 1-419)
Experiment: SPR

Row | Binder | Kd [nM]
1 | B1 | 0.1
2 | B2 | 0.18
3 | B3 | 2.36
4 | B4 | 0.08
